# Measured values reported in paper PMC5057311.
# Key:
# [1] = molecular target: CD86 on cynomolgus monkey blood cells (cynomolgus monkey (endogenous in blood cells)); assay: flow cytometry on cells
# [2] = molecular target: CD80 on cynomolgus monkey blood cells (cynomolgus monkey (endogenous in blood cells)); assay: flow cytometry on cells
substance,measurement,setting,value
CTLA4‐Ig recombinant fusion protein (from UniProt P16410 36-161) (Fc fusion),"percent free CD86 of predose, 4 h after the low dose (0.03 mg/kg)",[1],67%
same,serum CTLA4‐Ig concentration at ∼90% target suppression,[1],33 µg/mL
same,"percent free CD80 of predose, Day 14, high dose (3 mg/kg)",[2],3%
same,"percent free CD80 of predose, Day 14, middle dose (0.3 mg/kg)",[2],42%
same,percent suppression of free CD80 upon administration (all dose groups),[2],> 90%
same,serum CTLA4‐Ig concentration at ∼90% target suppression,[2],0.18 µg/mL
